Bridge positions count the residues as written; N and C are the ends. Ends that are not written are not given here.
How the values were obtained:
RT4 tumor cells = assay: Phage attachment to subconfluent cell monolayer, with peptide competition; format: cell-based, human; conditions: increasing amounts of peptide
Protocol: A subconfluent monolayer of RT4 tumor cells was incubated with 1×10^8 T.U. of VHALES (SEQ ID NO:25) phage per well in presence of increasing amounts of VHALES (SEQ ID NO:25) and control peptide. […] Bound phage were detected after intensive washing by infection with log phase K91 bacteria and plating of serial dilutions.
All cells were grown to subconfluency in 48 well plates and free binding sites were blocked with 800 μl 30% FCS/DMEM (blocking medium) for 1 hour at 37° C. The blocking solution was then replaced by 200 μl 10% FCS/DMEM (washing medium) containing 1×10^8 cfu of each phage per well. After incubation for 2 hours at 4° C. to prevent unspecific endocytosis, unbound phage were removed by washing 7 times with 500 μl washing medium. For competition experiments increasing concentrations of the corresponding peptide or a control peptide (CARAC, SEQ ID NO:5) were added during the incubation. Bound phage were determined by infection with 500 μl log phase K91 culture and plating of serial dilutions.

KS1767 cells = assay: BRASIL binding of phage to KS1767 cells, with synthetic peptide competition; format: cell-based; conditions: for effect of soluble peptide on RGD-4C phage binding to KS1767 cells: competition experiment
Protocol: FIG. 2A. BRASIL method optimization. A single-cell suspension of Kaposi sarcoma-derived cells (KS1767) was incubated with increasing titers of a phage displaying an alpha v integrin-binding motif (RGD-4C phage) or a control phage with no peptide insert (Fd phage). KS1767 cells were chosen because they express high levels of alpha v integrins. Cells and phage were incubated for 4 hours on ice (to prevent phage internalization) and centrifuged for 10 minutes at 10,000 g. The phage bound to the KS1767 cells were recovered by infection of a host E. coli, and plated in LB/tet agar plates at 37° C. overnight. Finally, the phage transducing units were counted. Extremely low backgrounds were observed. Under non-saturated conditions, a conservative mean estimate of the enrichment of RGD-4C phage in relation to Fd phage is 500-1000. This experiment was repeated three times with similar results. Mean and standard deviation are shown.
Cells were harvested with phosphate-buffered saline (PBS) and 5 mM EDTA, washed with MEM, and re-suspended in MEM containing 1% BSA at 10^6 cells/ml and incubated with phage in 1.5 ml Eppendorf tubes. After 4 h, 100 μl of the cell-phage suspension was gently transferred to the top of a non-miscible organic lower phase (200 μl in a 400 μl-Eppendorf tube) and centrifuged at 10,000 g for 10 minutes. The preferred organic phase combination consisted of a mixture of dibutyl phthalate:cyclohexane (9:1 [v/v]; ρ=1.03 g/ml). BRASIL has been attempted with other phthalate admixtures with the appropriate density (for example, dibutyl phthalate:diisooctyl phthalate; 4:6 [v/v]) with similar results. The tube was snap frozen in liquid nitrogen, the bottom of the tube sliced off, and the cell-phage pellet transferred to a new tube. Bound phage were rescued by infection with 200 μl of E. coli K91kan host bacteria in log phase. To evaluate binding specificity, phage and cells were incubated with the cognate or control synthetic peptides for competition assays.
KS1767 cells were detached with cold EDTA and re-suspended in MEM containing 1% BSA. […] The cell suspension was incubated with RGD-4C phage or a control phage with no peptide insert (fd-tet phage). Increasing amounts of either phage were added to the cells in suspension and the cell-phage admixture was incubated for 4 hr on ice. BRASIL was performed on ice to minimize post-binding events such as ligand-receptor internalization by the target cells. The cells were separated by centrifugation through the organic phase as described above. Bound phage were recovered and phage TU were counted. To compare BRASIL to conventional cell panning methods that require an additional washing step, 200 μl of the cell suspension were incubated with phage for 4 hr on ice. […]

rat NRP-1 = biological target: T1, rat NRP-1 (Rattus norvegicus, UniProt Q9QWJ9); assay: Phage binding to immobilized purified receptor, with competition; conditions: competitor pre-incubated with immobilized receptor; PDGF-BB up to 200 ng/ml
T1 construct: purchased R&D Systems Minneapolis, Minn
T1 sequence (Q9QWJ9 with tags, fused parts or gaps limits assumed): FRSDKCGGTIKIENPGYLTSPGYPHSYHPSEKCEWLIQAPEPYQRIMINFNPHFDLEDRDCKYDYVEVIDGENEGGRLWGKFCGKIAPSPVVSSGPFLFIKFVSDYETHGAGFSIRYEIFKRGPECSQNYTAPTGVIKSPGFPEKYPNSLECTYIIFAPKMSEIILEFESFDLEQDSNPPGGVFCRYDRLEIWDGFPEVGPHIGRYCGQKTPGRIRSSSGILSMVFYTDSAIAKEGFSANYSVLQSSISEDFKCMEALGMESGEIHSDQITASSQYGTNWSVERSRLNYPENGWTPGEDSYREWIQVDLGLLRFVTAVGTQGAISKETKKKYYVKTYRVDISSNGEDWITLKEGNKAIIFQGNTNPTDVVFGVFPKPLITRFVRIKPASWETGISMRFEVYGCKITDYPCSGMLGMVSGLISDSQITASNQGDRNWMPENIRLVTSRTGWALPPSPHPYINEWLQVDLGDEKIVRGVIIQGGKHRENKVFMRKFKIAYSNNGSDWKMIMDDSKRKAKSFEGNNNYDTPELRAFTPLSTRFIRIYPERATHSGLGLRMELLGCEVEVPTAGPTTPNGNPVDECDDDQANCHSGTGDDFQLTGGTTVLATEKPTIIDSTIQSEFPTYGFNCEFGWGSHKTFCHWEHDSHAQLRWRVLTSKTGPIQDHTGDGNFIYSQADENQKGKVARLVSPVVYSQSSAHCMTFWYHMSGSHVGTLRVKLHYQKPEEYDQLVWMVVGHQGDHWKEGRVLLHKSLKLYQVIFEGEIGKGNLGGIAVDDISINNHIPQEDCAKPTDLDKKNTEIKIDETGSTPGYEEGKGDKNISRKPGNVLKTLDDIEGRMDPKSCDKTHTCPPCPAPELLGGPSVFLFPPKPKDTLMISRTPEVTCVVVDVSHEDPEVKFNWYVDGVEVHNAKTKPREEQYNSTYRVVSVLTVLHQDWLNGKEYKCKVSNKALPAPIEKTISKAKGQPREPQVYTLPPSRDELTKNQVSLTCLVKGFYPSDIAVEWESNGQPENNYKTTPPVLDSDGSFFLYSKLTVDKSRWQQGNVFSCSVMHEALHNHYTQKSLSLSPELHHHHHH
Protocol: (§1) Human VEGFR-1, human VEGFR-2, rat NRP-1, and rat NRP-2 (1 μg in 50 μl of PBS) were immobilized on microtiter well plates overnight at 4° C. The wells were washed twice with PBS, blocked with PBS containing 3% BSA for 2 h at room temperature, and then incubated with 10^9 TU of either […] (SEQ ID NO:6) phage, […] (SEQ ID NO:11) phage, or fd-tet phage in 50 μl of PBS/1.5% BSA. After 1 hr at room temperature, wells were washed nine times with PBS and phage were recovered by bacterial infection. Serial dilutions were plated onto Luria-Bertani (LB) medium supplemented with tetracycline. VEGF165, PDGF-BB, or synthetic peptides were used at the indicated concentrations and pre-incubated with the immobilized proteins to evaluate competitive inhibition of phage binding. ELISA with either polyclonal anti-VEGFR-1 serum or anti-human IgG (VEGFR-2, NRP-1, and NRP-2) confirmed the presence and concentration of the immobilized receptors on the microtiter plates. […] Following three washes, VEGF165 binding was evaluated by ELISA by using anti-VEGF specific antibodies (data not shown).

human VEGFR-1 = biological target: T2, human VEGFR-1 (Homo sapiens, UniProt P17948); assay: as above; conditions: for blocking of clone 19 phage binding to VEGF-R1 by competitor: competitor pre-incubated with immobilized receptor, PDGF-BB up to 200 ng/ml
T2 construct: purchased Oncogene Research Products, Boston, Mass
T2 sequence (P17948 27-1338): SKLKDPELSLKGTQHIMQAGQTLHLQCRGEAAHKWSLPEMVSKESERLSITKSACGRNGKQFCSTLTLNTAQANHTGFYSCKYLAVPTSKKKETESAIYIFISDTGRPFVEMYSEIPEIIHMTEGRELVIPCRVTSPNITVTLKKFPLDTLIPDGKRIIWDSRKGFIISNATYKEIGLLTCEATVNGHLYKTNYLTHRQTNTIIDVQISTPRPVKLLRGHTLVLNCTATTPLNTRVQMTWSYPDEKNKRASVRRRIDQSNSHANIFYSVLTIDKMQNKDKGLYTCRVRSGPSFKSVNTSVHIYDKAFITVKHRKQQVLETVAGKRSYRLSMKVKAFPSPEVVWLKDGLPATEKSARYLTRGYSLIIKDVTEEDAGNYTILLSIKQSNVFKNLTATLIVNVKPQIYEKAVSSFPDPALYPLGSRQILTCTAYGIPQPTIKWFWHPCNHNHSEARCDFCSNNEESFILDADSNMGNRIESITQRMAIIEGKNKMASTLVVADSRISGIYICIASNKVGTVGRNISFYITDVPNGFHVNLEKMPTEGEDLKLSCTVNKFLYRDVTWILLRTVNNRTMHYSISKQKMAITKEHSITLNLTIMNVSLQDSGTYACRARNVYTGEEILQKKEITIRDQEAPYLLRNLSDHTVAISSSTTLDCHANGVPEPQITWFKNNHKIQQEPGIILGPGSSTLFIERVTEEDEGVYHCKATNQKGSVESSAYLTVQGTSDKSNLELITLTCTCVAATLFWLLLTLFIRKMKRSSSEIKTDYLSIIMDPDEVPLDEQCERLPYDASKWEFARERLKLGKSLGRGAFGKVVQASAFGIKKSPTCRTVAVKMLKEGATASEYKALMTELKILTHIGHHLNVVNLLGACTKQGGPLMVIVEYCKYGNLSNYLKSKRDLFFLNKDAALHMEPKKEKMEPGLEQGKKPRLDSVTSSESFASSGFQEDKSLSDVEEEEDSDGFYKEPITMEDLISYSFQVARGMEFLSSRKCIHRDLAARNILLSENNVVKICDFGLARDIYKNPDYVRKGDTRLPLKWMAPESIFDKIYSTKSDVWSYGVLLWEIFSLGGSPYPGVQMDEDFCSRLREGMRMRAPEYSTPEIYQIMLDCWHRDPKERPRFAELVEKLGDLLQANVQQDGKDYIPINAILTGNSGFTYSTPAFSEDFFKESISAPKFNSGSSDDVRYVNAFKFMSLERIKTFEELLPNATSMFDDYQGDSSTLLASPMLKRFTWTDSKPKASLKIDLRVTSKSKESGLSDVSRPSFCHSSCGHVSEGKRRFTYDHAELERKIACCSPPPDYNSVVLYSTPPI
Protocol: as §1

porcine bladder mucosa = assay: Dot blot chamber assay after removal of the GAG-layer; format: cell-based; conditions: 0.1M HCl for 2 min; relative to untreated mucosa set to 1
Protocol: FIG. 10. Influence of the GAG-layer on phage binding. In the dot blot chamber assay portions of a porcine bladder mucosa were treated with 0.1M HCl for 2 min prior to remove the GAG-layer. Binding to treated surface is given relative to untreated surface, that was set as 1. Bound phage were detected after intensive washing by infection with log phase K91 bacteria and plating of serial dilutions.
Removal of the glucosaminoglycan- (GAG-) layer on intact mucosa samples was performed as a dot blot chamber assay. Half of the wells were incubated with 200 μl 0.1M HCl per well for 2 min, intensely rinsed with blocking solution and both parts blocked as before. Results are given relative to fd-tet phage to untreated mucosa, that was set to 1.
Using the same assay the influence of the glucosaminoglycan (GAG) layer on binding of several phage to intact mucosa was examined. The GAG-layer was removed as described above. Half of the mucosa of human ureter and porcine bladder specimens were treated inside the dot blot chamber with […] for 2 min, extensively washed and the binding assay performed as before.

[1] = biological target: alpha v integrins on KS1767 cells (Kaposi sarcoma-derived cell line) (UniProt P06756); assay: BRASIL, phage on KS1767 cells in suspension, transducing units recovered
alpha v integrins on KS1767 cells (Kaposi sarcoma-derived cell line), sequence (P06756 31-1048): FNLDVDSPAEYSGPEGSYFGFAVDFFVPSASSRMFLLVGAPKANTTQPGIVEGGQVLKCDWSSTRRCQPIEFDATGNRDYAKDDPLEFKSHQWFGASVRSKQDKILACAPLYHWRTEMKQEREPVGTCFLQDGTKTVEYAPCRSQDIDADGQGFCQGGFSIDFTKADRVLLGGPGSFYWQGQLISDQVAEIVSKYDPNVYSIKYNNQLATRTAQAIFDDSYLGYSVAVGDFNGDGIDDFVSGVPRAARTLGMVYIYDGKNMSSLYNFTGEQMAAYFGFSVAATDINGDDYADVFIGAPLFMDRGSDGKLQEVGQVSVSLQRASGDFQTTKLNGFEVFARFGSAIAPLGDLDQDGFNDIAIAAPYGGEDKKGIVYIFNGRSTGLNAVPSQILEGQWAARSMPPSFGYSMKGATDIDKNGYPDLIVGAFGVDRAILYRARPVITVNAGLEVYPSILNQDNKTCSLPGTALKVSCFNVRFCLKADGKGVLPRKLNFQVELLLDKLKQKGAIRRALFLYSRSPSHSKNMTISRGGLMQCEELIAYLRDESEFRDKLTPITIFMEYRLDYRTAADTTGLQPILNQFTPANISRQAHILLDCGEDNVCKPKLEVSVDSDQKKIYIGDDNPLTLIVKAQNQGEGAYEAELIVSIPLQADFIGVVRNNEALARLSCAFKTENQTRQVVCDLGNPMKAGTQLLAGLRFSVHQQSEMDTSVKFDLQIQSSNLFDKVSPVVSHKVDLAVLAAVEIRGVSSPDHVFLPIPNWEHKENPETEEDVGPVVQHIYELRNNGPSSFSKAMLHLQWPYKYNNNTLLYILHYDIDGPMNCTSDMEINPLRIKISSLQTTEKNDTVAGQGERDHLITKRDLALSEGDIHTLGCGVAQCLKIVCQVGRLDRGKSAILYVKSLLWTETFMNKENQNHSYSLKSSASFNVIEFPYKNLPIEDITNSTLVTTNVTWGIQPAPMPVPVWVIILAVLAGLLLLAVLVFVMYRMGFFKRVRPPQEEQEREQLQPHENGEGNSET

[2] = biological target: T3, recombinant human VEGFR-1 (human, UniProt P17948 27-758, limits assumed); assay: competition of clone-19 phage binding to immobilized receptors; reference is NRP-1 (not shown)
T3 construct: Bought; immobilized on microtiter wells (1 ug in 50 ul PBS); also called Flt1
T3 sequence (P17948 27-758 limits assumed): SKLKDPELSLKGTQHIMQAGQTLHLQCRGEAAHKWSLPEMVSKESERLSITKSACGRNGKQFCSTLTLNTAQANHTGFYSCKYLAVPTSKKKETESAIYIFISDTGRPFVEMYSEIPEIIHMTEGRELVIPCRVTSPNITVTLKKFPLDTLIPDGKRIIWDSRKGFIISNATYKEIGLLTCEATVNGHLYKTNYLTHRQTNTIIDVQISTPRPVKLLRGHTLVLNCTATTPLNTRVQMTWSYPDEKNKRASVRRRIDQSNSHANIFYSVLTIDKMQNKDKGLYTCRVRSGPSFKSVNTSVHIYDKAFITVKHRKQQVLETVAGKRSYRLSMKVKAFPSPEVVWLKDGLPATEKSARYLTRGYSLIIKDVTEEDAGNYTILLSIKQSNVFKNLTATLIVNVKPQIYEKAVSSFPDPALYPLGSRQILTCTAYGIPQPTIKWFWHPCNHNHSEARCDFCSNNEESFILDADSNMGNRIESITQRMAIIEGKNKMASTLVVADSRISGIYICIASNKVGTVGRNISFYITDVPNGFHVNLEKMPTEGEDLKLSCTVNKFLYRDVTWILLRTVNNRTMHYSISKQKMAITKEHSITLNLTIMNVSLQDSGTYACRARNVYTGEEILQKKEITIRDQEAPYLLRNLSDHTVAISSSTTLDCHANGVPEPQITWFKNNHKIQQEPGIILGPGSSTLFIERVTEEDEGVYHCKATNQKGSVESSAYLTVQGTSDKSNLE
Protocol: (§2) Human VEGFR-1, human VEGFR-2, rat NRP-1, and rat NRP-2 (1 μg in 50 μl of PBS) were immobilized on microtiter well plates overnight at 4° C. The wells were washed twice with PBS, blocked with PBS containing 3% BSA for 2 h at room temperature, and then incubated with 10⁹ TU of either […] […] (SEQ ID NO:11) phage, or fd-tet phage in 50 μl of PBS/1.5% BSA. After 1 hr at room temperature, wells were washed nine times with PBS and phage were recovered by bacterial infection. Serial dilutions were plated onto Luria-Bertani (LB) medium supplemented with tetracycline. VEGF₁₆₅, PDGF-BB, or synthetic peptides were used at the indicated concentrations and pre-incubated with the immobilized proteins to evaluate competitive inhibition of phage binding.

recombinant rat NRP-1/Fc = biological target: T4, recombinant rat NRP-1/Fc (rat; human, UniProt Q9QWJ9 22-854, limits assumed); assay: competition of clone-19 phage binding to immobilized NRP-1 (not shown)
T4 construct: Bought receptor/Fc chimera; also called rat Neuropilin-1; neuropilin-1; not shown: Fc region of human IgG1
T4 sequence (looked up): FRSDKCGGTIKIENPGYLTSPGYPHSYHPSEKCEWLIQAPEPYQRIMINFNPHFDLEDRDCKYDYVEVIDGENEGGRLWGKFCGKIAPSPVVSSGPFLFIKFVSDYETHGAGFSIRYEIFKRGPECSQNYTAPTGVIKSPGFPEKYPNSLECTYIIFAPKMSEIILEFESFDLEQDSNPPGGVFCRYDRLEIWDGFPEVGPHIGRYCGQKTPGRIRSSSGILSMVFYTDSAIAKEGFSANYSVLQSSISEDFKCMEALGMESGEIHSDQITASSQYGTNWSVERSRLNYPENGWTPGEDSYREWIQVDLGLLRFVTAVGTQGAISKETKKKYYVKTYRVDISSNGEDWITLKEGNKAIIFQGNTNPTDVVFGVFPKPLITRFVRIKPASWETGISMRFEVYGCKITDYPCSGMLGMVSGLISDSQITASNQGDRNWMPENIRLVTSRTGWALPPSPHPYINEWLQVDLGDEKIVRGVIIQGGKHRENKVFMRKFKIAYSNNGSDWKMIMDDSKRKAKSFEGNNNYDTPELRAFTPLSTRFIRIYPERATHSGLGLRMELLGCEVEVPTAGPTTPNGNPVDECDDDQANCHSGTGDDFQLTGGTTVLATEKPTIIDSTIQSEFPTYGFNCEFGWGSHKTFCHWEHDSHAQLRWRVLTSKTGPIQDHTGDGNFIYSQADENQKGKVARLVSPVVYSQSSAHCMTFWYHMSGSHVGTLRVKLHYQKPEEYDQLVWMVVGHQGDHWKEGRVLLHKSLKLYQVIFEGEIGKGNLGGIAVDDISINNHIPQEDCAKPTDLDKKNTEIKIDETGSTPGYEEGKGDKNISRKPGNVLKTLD
Protocol: as §2

[3] = biological target: alpha v integrins on KS1767 cells (Kaposi sarcoma-derived cell line) (UniProt P06756); assay: BRASIL on KS1767 cells, competition with peptide in solution

Molecule: O=c1[nH]cc(F)c(=O)[nH]1 [CARAC, reference compound]
- effect of peptide on VHALES phage binding to RT4 tumor cells (RT4 tumor cells): unchanged and not
- effect of soluble peptide on RGD-4C phage binding to KS1767 cells (KS1767 cells): no effect

Molecule: CDCRGDCFC [RGD-4C peptide]
- effect of soluble peptide on RGD-4C phage binding to KS1767 cells (KS1767 cells): completely inhibited
- inhibition of RGD-4C phage binding to KS1767 cells (KS1767 cells; synthetic peptide in solution): 99.99%

Molecule: CPQPRPLC
- blocking of clone 19 phage binding to NRP-1 by competitor (rat NRP-1): blocked
- efficiency in blocking phage binding to VEGF-R1 relative to NRP-1 (human VEGFR-1; clone 19 phage, VEGF-R1 versus NRP-1): approximately 100 fold
- blocking of clone 19 phage binding to VEGF-R1 by competitor (human VEGFR-1): blocked

Molecule: CRIRMSAGC
- change of phage binding after GAG-removal (porcine bladder mucosa): unchanged

Molecule: GRGESP
- effect of soluble peptide on RGD-4C phage binding to KS1767 cells (KS1767 cells): no effect

Molecule: PDGF-BB: PDGF-BB obtained commercially (R&D Systems) [reference compound]
- blocking of clone 19 phage binding to NRP-1 by competitor (rat NRP-1): not
- blocking of clone 19 phage binding to VEGF-R1 by competitor (human VEGFR-1): not

Molecule: RGD-4C phage (peptide)
- enrichment in relation to Fd phage [1]: 500 to 1000 fold
- ratio of RGD4C to Fd phage recovered (enrichment) [1]: 100 to 500 fold

Molecule: VHALES [VHALES peptide]
- effect of peptide on VHALES phage binding to RT4 tumor cells (RT4 tumor cells): reduced
- effect of peptide on VHALES phage binding to RT4 tumor cells (RT4 tumor cells; listed as VHALE): inhibited

Molecule: CPQPRPLC (disulfide 1-8 (inferred)) [synthetic cognate peptide CPQPRPLC (SEQ ID NO:6)]
- fold efficiency in blocking phage binding, VEGF-R1 against NRP-1 [2]: ~100 fold
- binding result (recombinant rat NRP-1/Fc): binds

B1: synthetic RGD-4C peptide, containing the targeting sequence … (SEQ ID NO:9) (peptide)
peptide: CDCRGDCFC
modifications: disulfide (positions not given here); not fully specified; also: cyclized, bonds not given here
- percent inhibition of RGD-4C phage binding [3]: 100%

Source: US20080176792A1, “VEGFR-1 TARGETING PEPTIDES” (priority 2000, published 2008)
